In patent publication US20260284216 (published 2026):
Substitutions are numbered along the chain they refer to. Where two headings read alike, the source gives them in different places.

T1: Trop2 (human, UniProt P09758)
T1 chain: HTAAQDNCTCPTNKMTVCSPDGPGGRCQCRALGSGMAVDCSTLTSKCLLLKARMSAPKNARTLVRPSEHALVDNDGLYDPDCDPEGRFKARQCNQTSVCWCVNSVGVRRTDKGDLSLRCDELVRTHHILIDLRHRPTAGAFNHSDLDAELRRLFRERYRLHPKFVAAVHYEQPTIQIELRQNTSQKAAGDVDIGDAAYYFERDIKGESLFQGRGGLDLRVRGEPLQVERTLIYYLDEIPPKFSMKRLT

B1: TN01 (antibody, V domains shown)
VH: EVQLVESGGGLVQPGGSLRLSCAASGYVFTDYGMNWVRQAPGKGLEWMGWINTAYGSPDYADSVKGRFTFSLDTSKSTAYLQMNSLRAEDTAVYYCARGYRYYAMDYWGQGTLVTVSS
VL: DIQMTQSPSSLSASVGDRVTITCKASQNVGTNVAWYQQKPGKAPKALIYSASFLYSGVPYRFSGSGSGTDFTLTISSLQPEDFATYYCQQVGDYPLTFGQGTKVEIKR
B2: FN15 (antibody, V domains shown)
VH: B1 VH with A54D, Y55N, S57T, D59Y, Y102S
VL: B1 VL with N28Y, V29T, G30Y, T31N, N32A, V91S, G92Y, D93G, P95L, L96V

Columns and labels:
Assay in all cases: BLI
[1] = biological target: TNF-alpha (human)
[2] = biological target: T1, Trop2
[3] = biological target: TNF-alpha (human); remark: listed apart in the source
[4] = biological target: T2, FAP (human, UniProt Q12884)
[5] = biological target: T2, FAP; remark: listed apart in the source
[6] = biological target: TNF-alpha (human); remark: listed apart in the source

TNF-alpha (human), sequence (chain, as listed by the source): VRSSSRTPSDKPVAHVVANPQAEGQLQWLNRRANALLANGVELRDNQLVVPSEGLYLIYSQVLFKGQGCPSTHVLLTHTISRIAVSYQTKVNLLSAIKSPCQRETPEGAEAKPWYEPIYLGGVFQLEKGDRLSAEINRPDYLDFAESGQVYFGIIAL
T2 sequence (Q12884 26-760): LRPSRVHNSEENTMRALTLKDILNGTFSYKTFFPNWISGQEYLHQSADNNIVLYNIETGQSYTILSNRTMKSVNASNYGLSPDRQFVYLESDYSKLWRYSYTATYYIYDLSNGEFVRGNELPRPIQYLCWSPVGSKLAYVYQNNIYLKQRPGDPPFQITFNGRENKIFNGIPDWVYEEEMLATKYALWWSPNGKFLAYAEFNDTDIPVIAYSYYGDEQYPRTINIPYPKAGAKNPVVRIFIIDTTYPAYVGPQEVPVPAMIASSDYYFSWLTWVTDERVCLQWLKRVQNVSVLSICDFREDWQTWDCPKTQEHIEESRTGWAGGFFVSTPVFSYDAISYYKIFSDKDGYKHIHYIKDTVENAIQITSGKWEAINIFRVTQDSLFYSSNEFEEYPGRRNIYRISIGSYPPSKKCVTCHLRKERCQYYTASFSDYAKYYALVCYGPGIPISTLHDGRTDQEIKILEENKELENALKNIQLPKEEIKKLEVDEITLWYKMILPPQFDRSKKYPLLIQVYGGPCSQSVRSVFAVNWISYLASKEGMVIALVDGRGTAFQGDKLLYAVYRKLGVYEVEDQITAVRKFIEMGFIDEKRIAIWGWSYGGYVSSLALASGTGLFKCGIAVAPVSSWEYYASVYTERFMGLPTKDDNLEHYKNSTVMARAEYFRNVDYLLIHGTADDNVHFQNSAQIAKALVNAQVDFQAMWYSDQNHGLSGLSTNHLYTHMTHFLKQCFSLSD

Binder	Kd [1] [µM]	Kd [2] [µM]	Kd [3] [µM]	Kd [4] [µM]	Kd [5] [µM]	Kd [6] [µM]
B1	0.0165	0.101	–	–	–	–
B2	–	–	0.0205	0.00219	0.0131	0.0257
